Measurements published in patent US20150368309A1 (SHIRE HUMAN GENETIC THERAPIES, published 2015).

Biological target: the molecule itself
Test: DSS crosslinking, anti-Flt-1 Western blot
Method: PLGF and sFlt-1 (Human sFlt-1:Abcam, Cat#54346) were incubated on ice for 2 hrs in 100 μL crosslinking buffer. After the incubation, the crosslinking reagent, Disuccinimidyl suberate (DSS), was added, 1 μL of 25 mM stock DSS (in DMSO) to a final concentration of 250 μM. After brief vortexing, the mixture was incubated on ice for additional 15 min.
To analyze the crosslinked complexes using Western blot, the pellets were solubilized with 30 μL of 1×LDS buffer containing 10 mM DTT. After heating the dissolved pellets to 37° C. for 15 min, 10 μL of the sample was loaded onto 8 to 16% Tris-glycince SDS-PAGE gel. The gels were transferred to PVDF membranes by standard method for anti-PLGF or anti-Flt-1 Western blot analysis.
WT PLGF forms dimers in its native state, and the binding models of WT PLGF with hsFlt-1 were established. A PLGF C59A monomer binding with Flt-1 receptor monomer is also found. The binding complexes, WT PLGF-hsFlt-1 and PLGF C59A-hsFlt-1, were crosslinked by DSS through amine groups on the surface of PLGF or hsFlt-1 molecules. After separating on SDS-PAGE, PLGF-containing or Flt-1 containing binding complexes were detected on Western blot by anti-PLGF or anti-Flt-1 antibodies.

B1: Human sFlt-1 (Abcam, Cat#54346), without Fc fusion (receptor, UniProt P17948-2 27-687, looked up)
chain: SKLKDPELSLKGTQHIMQAGQTLHLQCRGEAAHKWSLPEMVSKESERLSITKSACGRNGKQFCSTLTLNTAQANHTGFYSCKYLAVPTSKKKETESAIYIFISDTGRPFVEMYSEIPEIIHMTEGRELVIPCRVTSPNITVTLKKFPLDTLIPDGKRIIWDSRKGFIISNATYKEIGLLTCEATVNGHLYKTNYLTHRQTNTIIDVQISTPRPVKLLRGHTLVLNCTATTPLNTRVQMTWSYPDEKNKRASVRRRIDQSNSHANIFYSVLTIDKMQNKDKGLYTCRVRSGPSFKSVNTSVHIYDKAFITVKHRKQQVLETVAGKRSYRLSMKVKAFPSPEVVWLKDGLPATEKSARYLTRGYSLIIKDVTEEDAGNYTILLSIKQSNVFKNLTATLIVNVKPQIYEKAVSSFPDPALYPLGSRQILTCTAYGIPQPTIKWFWHPCNHNHSEARCDFCSNNEESFILDADSNMGNRIESITQRMAIIEGKNKMASTLVVADSRISGIYICIASNKVGTVGRNISFYITDVPNGFHVNLEKMPTEGEDLKLSCTVNKFLYRDVTWILLRTVNNRTMHYSISKQKMAITKEHSITLNLTIMNVSLQDSGTYACRARNVYTGEEILQKKEITIRGEHCNKKAVFSRISKFKSTRNDCTTQSNVKH
notes: also called hsFlt-1; commercial sFlt-1 that doesn't contain Fc fusion
  binding result: no binding
